Measurements: patent publication US20080206268A1

How the values were obtained:
[1] = biological target: HLA-B60 on HLA typed EBV-LCLs (human); assay: cell-based competition on acid-treated EBV-LCLs against 150 nM fluorescent reference peptide, flow cytometry
[2] = biological target: HLA-B60 on HLA typed EBV-LCLs (human); assay: cell-based competition assay, flow cytometry
[3] = biological target: HLA-B60 on HLA typed EBV-LCLs (human); assay: cell-based competition assay, flow cytometry; remark: listed apart in the source
[4] = biological target: HLA-B60 on HLA typed EBV-LCLs (human); assay: cell-based competition on acid-treated EBV-LCLs against 150 nM fluorescent reference peptide, flow cytometry; remark: listed apart in the source
[5] = biological target: HLA-A3 on HLA typed EBV-LCLs (human); assay: as above
[6] = biological target: recombinant HLA-A2.1 protein and b2-microglobulin (human); assay: cell-free competition assay on recombinant HLA-A2.1, against HA-1^H peptide [..] as reference; settings: remark: other sources report otherwise
[7] = biological target: HLA-A2 on HLA typed EBV-LCLs (human); assay: cell-based competition on acid-treated EBV-LCLs against 150 nM fluorescent reference peptide, flow cytometry; settings: remark: other sources report otherwise

Binder KECVLHDDL (modifications not checked) [nonameric HA-1^H peptide …] has an IC50 [1] of 5.3 µM and an IC50 [2] of 1.6 to 5.3 µM.

KECVLRDDLL [decameric HA-1^R peptide …] showed an IC50 [3] of 1.6 to 5.3 µM and an IC50 [4] of 1.6 µM.

Binder VLHDDLLEAR (modifications not checked) has an IC50 [5] of 15.6 µM.

KECVLHDDLL showed an IC50 [4] of 1 µM.

Work on KESTLHLVL [HLA-B60 binder-positive control peptide …] yielded an IC50 [4] of 1.1 µM.

For VLRDDLLEA [HA-1^R peptide …], the fold lower binding affinity than the HA-1^H peptide [6] was 10 fold.

Work on VLHDDLLEA [HA-1^H peptide …] yielded an IC50 [7] of 6.4 µM.
